Laboratory results as given in the supplement of paper PMC9112550, “Optimization of the antimicrobial peptide Bac7 by deep mutational scanning” (BMC Biology, 2022).

These sequences were tested on Escherichia coli TOP10 (assay: shrunken log2 fold change of peptide-encoding DNA abundance (4.5 h post-induction vs induction); higher = less antimicrobial activity (less host growth inhibition)). Conditions: time post-induction: 4.5 h; library: site-saturation at positions 5, 18, 19, 20.
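Note: peptides expressed intracellularly from a pBAD plasmid library in pooled LB shake-flask culture, induced with 0.3% L-arabinose, DNA abundance read by NGS, three biological replicates, DESeq2 with apeglm shrinkage.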

Row | Sequence | shrunken log2 fold change
1 | RRIRCRPPRLPRPRPRPHSVPRP | -0.613
2 | RRIRTRPPRLPRPRPRPRMFPRP | -0.0163
3 | RRIRQRPPRLPRPRPRPMHSPRP | -0.165
4 | RRIRSRPPRLPRPRPRPWTWPRP | -0.0804
5 | RRIRDRPPRLPRPRPRPVVSPRP | 0.0706
6 | RRIRHRPPRLPRPRPRPETSPRP | 0.0165
7 | RRIRFRPPRLPRPRPRPPRTPRP | 0.579
8 | RRIRWRPPRLPRPRPRPMFSPRP | -0.0364
9 | RRIRSRPPRLPRPRPRPETVPRP | 0.211
10 | RRIRRRPPRLPRPRPRPFNAPRP | -0.0138
11 | RRIRKRPPRLPRPRPRPISVPRP | -0.056
12 | RRIRERPPRLPRPRPRPAKKPRP | 0.00764
13 | RRIRGRPPRLPRPRPRPVCLPRP | 1.1
14 | RRIRARPPRLPRPRPRPQVFPRP | 0.278
15 | RRIRNRPPRLPRPRPRPQDLPRP | -0.11
16 | RRIRGRPPRLPRPRPRPDHFPRP | -0.31
17 | RRIRCRPPRLPRPRPRPLWPPRP | 0.076
18 | RRIRNRPPRLPRPRPRPPRCPRP | 0.389
19 | RRIRNRPPRLPRPRPRPANGPRP | 0.0343
20 | RRIRSRPPRLPRPRPRPNIMPRP | -0.49
21 | RRIRIRPPRLPRPRPRPPYIPRP | -0.299
22 | RRIRNRPPRLPRPRPRPYYMPRP | -0.416
23 | RRIRWRPPRLPRPRPRPYSGPRP | -0.105
24 | RRIRMRPPRLPRPRPRPTNIPRP | -0.0556
25 | RRIRPRPPRLPRPRPRPQHCPRP | -0.0861

Row | Sequence | shrunken log2 fold change
26 | RRIRSRPPRLPRPRPRPEWQPRP | 0.254
27 | RRIRERPPRLPRPRPRPPDQPRP | 0.155
28 | RRIRNRPPRLPRPRPRPCDLPRP | -0.0345
29 | RRIRNRPPRLPRPRPRPTFVPRP | -0.185
30 | RRIRARPPRLPRPRPRPCRMPRP | -0.353
31 | RRIRKRPPRLPRPRPRPPTDPRP | 0.544
32 | RRIRLRPPRLPRPRPRPHIAPRP | -0.205
33 | RRIRARPPRLPRPRPRPPIDPRP | 0.647
34 | RRIRGRPPRLPRPRPRPNLPPRP | 0.133
35 | RRIRTRPPRLPRPRPRPHHGPRP | -0.0105
36 | RRIRQRPPRLPRPRPRPEKEPRP | -0.0081
37 | RRIRLRPPRLPRPRPRPWSVPRP | -0.0834
38 | RRIRCRPPRLPRPRPRPGLMPRP | -0.102
39 | RRIRYRPPRLPRPRPRPHTFPRP | -0.14
40 | RRIRGRPPRLPRPRPRPWITPRP | -0.204
41 | RRIRLRPPRLPRPRPRPTVLPRP | -0.126
42 | RRIRYRPPRLPRPRPRPLPSPRP | -0.14
43 | RRIRFRPPRLPRPRPRPKYAPRP | -0.145
44 | RRIRWRPPRLPRPRPRPQSEPRP | -0.338
45 | RRIRERPPRLPRPRPRPNVIPRP | -1.38
46 | RRIRHRPPRLPRPRPRPSNNPRP | -0.549
47 | RRIRSRPPRLPRPRPRPLYAPRP | -0.164
48 | RRIRLRPPRLPRPRPRPMVAPRP | -0.147
49 | RRIRNRPPRLPRPRPRPVMSPRP | 0.0178
50 | RRIRWRPPRLPRPRPRPSWAPRP | 0.152

Row | Sequence | shrunken log2 fold change
51 | RRIRERPPRLPRPRPRPEKHPRP | -0.13
52 | RRIRGRPPRLPRPRPRPWCVPRP | 0.121
53 | RRIRSRPPRLPRPRPRPENAPRP | -0.231
54 | RRIRARPPRLPRPRPRPNLEPRP | 0.0621
55 | RRIRDRPPRLPRPRPRPLNCPRP | -0.0225
56 | RRIRARPPRLPRPRPRPIPNPRP | -0.069
57 | RRIRERPPRLPRPRPRPPQLPRP | 0.194
58 | RRIRRRPPRLPRPRPRPQVEPRP | 0.0147
59 | RRIRQRPPRLPRPRPRPIEYPRP | -0.0135
60 | RRIRWRPPRLPRPRPRPHWKPRP | -0.018
61 | RRIRHRPPRLPRPRPRPLVCPRP | -9.35e-05
62 | RRIRNRPPRLPRPRPRPGTHPRP | -0.16
63 | RRIRPRPPRLPRPRPRPHACPRP | 0.00839
64 | RRIRKRPPRLPRPRPRPQQTPRP | -0.0533
65 | RRIRRRPPRLPRPRPRPRENPRP | 0.135
66 | RRIRNRPPRLPRPRPRPMFTPRP | -0.211
67 | RRIRSRPPRLPRPRPRPFWYPRP | -0.185
68 | RRIRLRPPRLPRPRPRPHTVPRP | -0.267
69 | RRIRDRPPRLPRPRPRPLRHPRP | 0.358
70 | RRIRQRPPRLPRPRPRPTIDPRP | -0.0223
71 | RRIRIRPPRLPRPRPRPAPHPRP | -0.0179
72 | RRIRMRPPRLPRPRPRPDMMPRP | 0.187
73 | RRIRVRPPRLPRPRPRPESPPRP | 0.232
74 | RRIRHRPPRLPRPRPRPQDRPRP | -0.111
75 | RRIRWRPPRLPRPRPRPMRYPRP | -0.0679

Row | Sequence | shrunken log2 fold change
76 | RRIRVRPPRLPRPRPRPMRKPRP | 4.33
77 | RRIRQRPPRLPRPRPRPIFSPRP | 0.0638
78 | RRIRTRPPRLPRPRPRPFINPRP | -0.161
79 | RRIRIRPPRLPRPRPRPGWGPRP | 0.308
80 | RRIRNRPPRLPRPRPRPLGTPRP | 0.135
81 | RRIRKRPPRLPRPRPRPACMPRP | 0.605
82 | RRIRTRPPRLPRPRPRPWAQPRP | 0.0456
83 | RRIRNRPPRLPRPRPRPPHAPRP | 0.22
84 | RRIRDRPPRLPRPRPRPLVNPRP | 0.426
85 | RRIRFRPPRLPRPRPRPFHDPRP | -0.149
86 | RRIRKRPPRLPRPRPRPSGLPRP | -0.0301
87 | RRIRERPPRLPRPRPRPWYSPRP | -0.798
88 | RRIRWRPPRLPRPRPRPRMRPRP | 1.03
89 | RRIRIRPPRLPRPRPRPWHMPRP | -0.0375
90 | RRIRTRPPRLPRPRPRPFPLPRP | -0.147
91 | RRIRMRPPRLPRPRPRPVIYPRP | -0.0966
92 | RRIRFRPPRLPRPRPRPILEPRP | -0.133
93 | RRIRCRPPRLPRPRPRPNTRPRP | -0.267
94 | RRIRLRPPRLPRPRPRPCNIPRP | -0.00101
95 | RRIRYRPPRLPRPRPRPHVKPRP | -0.00472
96 | RRIRVRPPRLPRPRPRPFRRPRP | -0.101
97 | RRIRKRPPRLPRPRPRPAWSPRP | 0.202
98 | RRIRTRPPRLPRPRPRPEKRPRP | -0.0149
99 | RRIRGRPPRLPRPRPRPRFKPRP | 0.449
100 | RRIRIRPPRLPRPRPRPTSMPRP | -0.0835

Row | Sequence | shrunken log2 fold change
101 | RRIRARPPRLPRPRPRPEMRPRP | 1.19
102 | RRIRARPPRLPRPRPRPNAYPRP | 0.0893
103 | RRIRVRPPRLPRPRPRPGSDPRP | -0.00601
104 | RRIRLRPPRLPRPRPRPWHVPRP | -0.121
105 | RRIRGRPPRLPRPRPRPSNQPRP | 0.0776
106 | RRIRDRPPRLPRPRPRPYYGPRP | 0.127
107 | RRIRYRPPRLPRPRPRPTFSPRP | -0.383
108 | RRIRFRPPRLPRPRPRPFPGPRP | -0.00776
109 | RRIRPRPPRLPRPRPRPPAYPRP | -0.0312
110 | RRIRIRPPRLPRPRPRPHDIPRP | -0.146
111 | RRIRSRPPRLPRPRPRPQLWPRP | 0.0725
112 | RRIRARPPRLPRPRPRPVTKPRP | 0.128
113 | RRIRSRPPRLPRPRPRPDEAPRP | -0.104
114 | RRIRKRPPRLPRPRPRPPEVPRP | 0.741
115 | RRIRQRPPRLPRPRPRPPDPPRP | 0.151
116 | RRIRQRPPRLPRPRPRPHPHPRP | -0.136
117 | RRIRSRPPRLPRPRPRPHAAPRP | 0.331
118 | RRIRFRPPRLPRPRPRPMWYPRP | -0.0081
119 | RRIRVRPPRLPRPRPRPSHYPRP | -0.68
120 | RRIRTRPPRLPRPRPRPGERPRP | 0.113
121 | RRIRVRPPRLPRPRPRPEFTPRP | -0.0269
122 | RRIRPRPPRLPRPRPRPASDPRP | 0.261
123 | RRIRLRPPRLPRPRPRPYSKPRP | -0.434
124 | RRIRSRPPRLPRPRPRPMKIPRP | 0.108
125 | RRIRVRPPRLPRPRPRPTFFPRP | 0.0435

Row | Sequence | shrunken log2 fold change
126 | RRIRLRPPRLPRPRPRPNVDPRP | -0.492
127 | RRIRGRPPRLPRPRPRPNWHPRP | 0.27
128 | RRIRVRPPRLPRPRPRPDMDPRP | -0.154
129 | RRIRDRPPRLPRPRPRPGRFPRP | 0.315
130 | RRIRCRPPRLPRPRPRPYFTPRP | -0.774
131 | RRIRGRPPRLPRPRPRPADMPRP | 0.373
132 | RRIRMRPPRLPRPRPRPCWCPRP | -7.44e-05
133 | RRIRQRPPRLPRPRPRPSESPRP | -0.0923
134 | RRIRERPPRLPRPRPRPMPIPRP | -0.18
135 | RRIRWRPPRLPRPRPRPVWPPRP | 0.909
136 | RRIRNRPPRLPRPRPRPMRGPRP | 0.211
137 | RRIRYRPPRLPRPRPRPKAVPRP | -0.163
138 | RRIRLRPPRLPRPRPRPCMAPRP | -0.311
139 | RRIRDRPPRLPRPRPRPIDCPRP | 0.0306
140 | RRIRSRPPRLPRPRPRPSCQPRP | -0.175
141 | RRIRRRPPRLPRPRPRPCGRPRP | -0.0337
142 | RRIRRRPPRLPRPRPRPMIPPRP | -0.062
143 | RRIRERPPRLPRPRPRPPARPRP | 0.451
144 | RRIRGRPPRLPRPRPRPHRIPRP | 0.00463
145 | RRIRQRPPRLPRPRPRPIMVPRP | -0.0523
146 | RRIRKRPPRLPRPRPRPAYRPRP | 0.0954
147 | RRIRARPPRLPRPRPRPPYKPRP | 0.0849
148 | RRIRCRPPRLPRPRPRPDDRPRP | -0.0204
149 | RRIRVRPPRLPRPRPRPVWWPRP | -0.0476
150 | RRIRDRPPRLPRPRPRPKHIPRP | -0.236
